# Results taken from paper PMC2884976 (The Journal of General Virology, 2007).
# B1: GST–M1 N+M domain fusion protein (domain or fragment)
# chain: MSLLTEVETYVLSIIPSGPLKAEIAQRLEDVFAGKNTDLEVLMEWLKTRPILSPLTKGILGFVFTLTVPSERGLQRRRFVQNALNGNGDPNNMDKAVKLYRKLKREITFHGAKEISLSYSAGALASCMGLIYNRMGAVTTEVAFGLVCATCEQIADSQHRSHRQM
# notes: not shown: GST, N-terminal, kept
# B2: GST–M1 middle domain fusion protein (domain or fragment)
# chain: GDPNNMDKAVKLYRKLKREITFHGAKEISLSYSAGALASCMGLIYNRMGAVTTEVAFGLVCATCEQIADSQHRSHRQM
# notes: as for B1
# B3: GST–M1 M+C domain fusion protein (domain or fragment)
# chain: GDPNNMDKAVKLYRKLKREITFHGAKEISLSYSAGALASCMGLIYNRMGAVTTEVAFGLVCATCEQIADSQHRSHRQMVTTTNPLIRHENRMVLASTTAKAMEQMAGSSEQAAEAMEVASQARQMVQAMRTIGTHPSSSAGLKNDLLENLQAYQKRMGVQMQRFK
# notes: as for B1
# B4: untagged WT radiolabelled M1, in vitro translated (natural protein)
# chain: MSLLTEVETYVLSIIPSGPLKAEIAQRLEDVFAGKNTDLEVLMEWLKTRPILSPLTKGILGFVFTLTVPSERGLQRRRFVQNALNGNGDPNNMDKAVKLYRKLKREITFHGAKEISLSYSAGALASCMGLIYNRMGAVTTEVAFGLVCATCEQIADSQHRSHRQMVTTTNPLIRHENRMVLASTTAKAMEQMAGSSEQAAEAMEVASQARQMVQAMRTIGTHPSSSAGLKNDLLENLQAYQKRMGVQMQRFK
# Columns and labels:
# Assay in all cases: pull-down
# [1] = target: purified NP (influenza A virus A/PR/8/34 (PR8), UniProt P03466 1-498); conditions: both partners purified
# Sequence of purified NP (P03466 whole entry): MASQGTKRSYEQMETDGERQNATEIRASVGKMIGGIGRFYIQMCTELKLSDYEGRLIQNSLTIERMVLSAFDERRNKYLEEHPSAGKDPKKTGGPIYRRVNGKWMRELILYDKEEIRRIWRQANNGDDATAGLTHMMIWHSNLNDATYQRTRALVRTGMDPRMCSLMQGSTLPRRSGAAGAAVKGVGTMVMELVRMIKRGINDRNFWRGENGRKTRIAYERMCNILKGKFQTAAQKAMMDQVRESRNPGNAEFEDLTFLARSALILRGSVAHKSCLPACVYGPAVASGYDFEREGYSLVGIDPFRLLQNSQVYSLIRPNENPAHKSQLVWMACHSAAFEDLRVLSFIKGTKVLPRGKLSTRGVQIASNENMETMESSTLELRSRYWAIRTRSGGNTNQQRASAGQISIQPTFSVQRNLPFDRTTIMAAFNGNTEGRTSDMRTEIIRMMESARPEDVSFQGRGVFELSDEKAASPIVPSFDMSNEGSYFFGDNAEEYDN
# [2] = target: B2; conditions: one partner purified
# [3] = target: B3; conditions: one partner purified
# [4] = target: T1, GST–M1 C-terminal domain fusion protein (influenza A virus A/PR/8/34 (PR8), UniProt P03485 165-252); conditions: one partner purified
# T1 construct: Cloned into pGEX-3X; not shown: GST, N-terminal, kept
binder,measurement,setting,value
B1,binding result,[1],binds
B2,binding result,[1],binds
B3,binding result,[1],binds
B4,binding activity relative to full-length GST–M1,[2],2 fold
same,binding activity relative to full-length GST–M1,[3],2 fold
same,binding activity relative to full-length GST–M1,[4],~40%
